We go through 116 sequences from the supplement of paper PMC10724198.

± gives the standard deviation of the averaged measurements.
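Further: PSI is a weighted mean of sequencing reads over stability bins, variants kept only with over 10 reads, mCherry proximal and sfGFP distal, peptide attached via GGGS linker.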

In the data set the test system is Saccharomyces cerevisiae. The data set can be described thus: protein stability index of tFT-peptide fusion (C-terminal peptide) (PSI (0-1 scale)); higher = more stable (slower turnover). The following applies: genetic background: wild type; temperature: 30 C.
Consider KQKTSRGTGQSL, for which the protein stability index came to 0.683 ± 0.1.
Sequence KQNRKEKVQRNR gave a protein stability index of 0.709 ± 0.054.
Then KQQTPVQNKDLR, with 0.71399 ± 0.0006; and KQSNRYPCIHRS, with 0.705 ± 0.048.
Then KRCTFCGGGWVM, with 0.7276 ± 0.00082; and KREGEGLDWGEV, with 0.7089 ± 0.0014.
For the sequence KREQGPRPRACR, the protein stability index stood at 0.617 ± 0.036.
Then KRGKRTEKDKET, with 0.652 ± 0.071; and KRKEDSILVISC, with 0.662 ± 0.029; and KRKERKGEKKRR, with 0.685 ± 0.033.
Then KRKKKENNKIKI, with 0.756 ± 0.1.
Then KRKKKRKQKGKQ, with 0.722 ± 0.036.
For KRKKNKKRKQNE, the protein stability index came to 0.656 ± 0.026.
Then KRKKTRNKNGKG, with 0.627 ± 0.073; and KRKPEHKSAAEE, with 0.669 ± 0.038; and KRKRAVQYLMQP, with 0.615 ± 0.042.
KRLKKKKQSGGK gave a protein stability index of 0.71 ± 0.03.
KRRSQKKKRIMD registered a protein stability index of 0.6968 ± 0.0043.
Then KRTKKKTKDERK, with 0.644 ± 0.044; and KRYSVPLTTVVD, with 0.7165 ± 0.0035; and KSSEIKEKKTKK, with 0.7151 ± 0.0011.
The value for KSSNIINQKRIT was 0.66 ± 0.056; that for KSSTLRKIKRGK was 0.716 ± 0.03; that for KTCENKKKALRR was 0.6923 ± 0.0016.
Sequence KTGRPSRRGSTT had a protein stability index of 0.704 ± 0.036.
Then KTGVRAVSLTGS, with 0.696 ± 0.038; and KTHKKKKKNKNF, with 0.525 ± 0.012; and KTINEKKKRIEQ, with 0.713 ± 0.055.
Then KTIQDNNYDGIW, with 0.766 ± 0.25; and KTKKNKKKKINK, with 0.692 ± 0.075.
The value for KTKRKKKRRRRE was 0.705 ± 0.067.
KTQKKPNNRKNI registered a protein stability index of 0.682 ± 0.04.
Then KTRHVGSDNQGL, with 0.663 ± 0.043; and KVAECGYGTSWV, with 0.724 ± 0.013.
Then KVCESRQVEYFR, with 0.634 ± 0.088; and KVCVLSPDSCGL, with 0.741 ± 0.033; and KVGLGVNSLFTG, with 0.745 ± 0.18.
Then KVKGKSISKINH, with 0.645 ± 0.055.
KVLTTISRAINK yielded a protein stability index of 0.604 ± 0.012.
Then KVRDTFRDFGLM, with 0.673 ± 0.063.
The value for KYMPKDSLKNTI was 0.622 ± 0.01; that for KYPRPNSYFVPI was 0.717 ± 0.023.
Then LAARTKAQARHN, with 0.652 ± 0.04.
In turn, LACVYEVIPGPS registered a protein stability index of 0.677 ± 0.047.
The value for LACWAGVLGWGG was 0.732 ± 0.022.
Then LAESTSYNQRRP, with 0.701 ± 0.06; and LAGGRCGCGTHD, with 0.684 ± 0.042; and LAGLAVASVRRE, with 0.683 ± 0.013.
Then LAGRPSTTRAFR, with 0.59 ± 0.027.
With LALFPDPSSIIL, the protein stability index came to 0.7765 ± 0.0075.
The value for LALHWVESRFKH was 0.71 ± 0.06; that for LALSVRFFSVLF was 0.587 ± 0.036.
Consider LALVGGACVGRV, for which the protein stability index is 0.65 ± 0.044.
Sequence LANGACLLRLNF registered a protein stability index of 0.54 ± 0.017.
The value for LAPLALPLPPPT was 0.832 ± 0.18.
In the case of LAPPPLGNSSRP, the protein stability index was 0.704 ± 0.049.
Then LARGGASIGGES, with 0.701 ± 0.015.
Then LARPPPPSNHSP, with 0.695 ± 0.0094.
Then LASCAFQFLASC, with 0.691 ± 0.098.
Sequence LASGSVSCFWSG displayed a protein stability index of 0.71 ± 0.021.
Then LASSGQSWLVVF, with 0.563 ± 0.011; and LASSSPPTRPPH, with 0.702 ± 0.048; and LASVSNFLASGK, with 0.72 ± 0.058.
Sequence LAVNGEIERVCD had a protein stability index of 0.636 ± 0.11.
Then LAWALGESSPIG, with 0.737 ± 0.044; and LAYCGSTYVSRH, with 0.699 ± 0.022; and LCANDRGVAALA, with 0.683 ± 0.046.
With LCCSFGLFTLFW, the protein stability index was 0.711 ± 0.042.
The value for LCHCLSLLFSFL was 0.581 ± 0.015.
On to LCLFPLVTPPPA, for which the protein stability index was 0.607 ± 0.029.
LCLGFDGAFPLF had a protein stability index of 0.725 ± 0.014.
Then LCPTGAPLYFSL, with 0.64 ± 0.093.
The value for LCRSSIILTLLL was 0.586 ± 0.057.
LCSPGPLPPSYF yielded a protein stability index of 0.705 ± 0.045.
LCVGVGAAIRLW returned a protein stability index of 0.598 ± 0.039.
The value for LDCVPRTHCILS was 0.664 ± 0.074.
Then LDEFFIKTSANM, with 0.652 ± 0.088; and LDGSQDGANRRT, with 0.728 ± 0.095.
The value for LDLCTVIRFVGI was 0.723 ± 0.029.
In the case of LDRDTSCYMLDF, the protein stability index came to 0.718 ± 0.03.
The value for LDSGQALLSIPI was 0.643 ± 0.12; that for LEGEESISQMNE was 0.664 ± 0.043; that for LEQAGFWWPKGL was 0.764 ± 0.0087.
The value for LEVLGVPQLIRS was 0.534 ± 0.07; that for LEWHRPLCPPLF was 0.734 ± 0.075.
Then LFCGALSTRLAR, with 0.751 ± 0.081.
Turning to LFCVARARLGCW, the protein stability index is 0.768 ± 0.026.
For LFERSFSSHPVL, the protein stability index is 0.769 ± 0.13.
Then LFFLPSVLPFHC, with 0.636 ± 0.025; and LFFSLLCSSFGS, with 0.708 ± 0.022.
Then LFGFSPAPVSFG, with 0.733 ± 0.073; and LFHPPVCPVFLD, with 0.758 ± 0.037; and LFIGFFGIECFI, with 0.5798 ± 0.0037.
The value for LFILSLGEYSLP was 0.673 ± 0.066; that for LFKRTWRVEGFG was 0.705 ± 0.094.
Take LFLDSTSTLPAP: the protein stability index amounted to 0.662 ± 0.028.
The value for LFPFPSPLPPPL was 0.766 ± 0.0092.
Then LFPPFPPFSFSP, with 0.798 ± 0.045.
The value for LFPPRVSLPSHT was 0.663 ± 0.13.
Regarding LFPSPFVASFPP, the protein stability index worked out at 0.765 ± 0.055.
The value for LFSCLHCLFSCQ was 0.616 ± 0.091; that for LFSDAWVLTDWW was 0.753 ± 0.044; that for LFSDLCRVAWSL was 0.615 ± 0.021.
Then LFSPTFPTIYYA, with 0.759 ± 0.059; and LFSSFFSAAFAS, with 0.677 ± 0.064.
The value for LFTGPPPSPPPP was 0.699 ± 0.034; that for LFTLSGAPLALP was 0.729 ± 0.015; that for LFVCVFRPWLGG was 0.766 ± 0.09.
The sequence LFVGSSPPPSPP displayed a protein stability index of 0.643 ± 0.046.
The value for LGACAGSGFKGV was 0.713 ± 0.033; that for LGCCVFGFVFPS was 0.672 ± 0.047; that for LGCDDWIDWSRG was 0.694 ± 0.054.
The value for LGFFGGGRWAGG was 0.717 ± 0.025; that for LGGGAGKRVCEG was 0.685 ± 0.014; that for LGGGGGGGGRLR was 0.618 ± 0.0091.
Then LGGGGGLTAAGV, with 0.743 ± 0.016.
